{"source": "paper PMC8778164", "about": "“Towards Complete Tumor Resection: Novel Dual-Modality Probes for Improved Image-Guided Surgery of GRPR-Expressing Prostate Cancer” (Pharmaceutics, 2022)", "key": {"[1]": {"assay": "Stability in PBS at 37 °C (iTLC)", "format": "physicochemical", "details": "intact labeled ligand after incubation at 37 °C in PBS, n = 1", "protocol": "Stability in PBS was determined by incubating 20 µL of the labeled compounds (∼11 MBq) in PBS (80 µL) at 37 °C. Radiochemical purity was determined by iTLC at 30 min, 1 h, 2 h and 4 h. Stability in the serum was carried out by adding 70 µL of the labeled compound (∼35 MBq) to 330 µL of mouse serum (Merck, Haarlerbergweg, The Netherlands). The mixture was incubated at 37 °C. At different time points (30 min, 1 h, 2 h and 4 h), an aliquot of the mixture (50 µL) was added to 50 µL ACN. The vial was vortexed and centrifuged at 10,000 rpm for 20 min and the supernatant was analyzed by iTLC."}, "[2]": {"test_system": "PC-3-xenograft Balb/c nu/nu mice", "assay": "Ex vivo optical (fluorescence, IVIS) imaging of organs", "format": "in vivo, mouse", "details": "ex vivo after dissection, ex/em 640/680 nm", "protocol": "(§1) Seven-week-old male Balb/c nu/nu-specific and opportunistic pathogen-free (SOPF) mice (Janvier Labs, Le Genest-Saint-Isle, France) were housed in individually ventilated cages, with 4 mice per cage. Upon arrival, mice were acclimated for 1 week, with access to food and water ad libitum. Mice were subcutaneously inoculated on the right shoulder with PC-3 cells (5 × 10^6 cells suspended in 100 µL of 1/3 Matrigel (Corning Inc., Corning, NY, USA) and 2/3 Hank’s balanced salt solution (Gibco). PC-3 xenografts were allowed to grow for 3 weeks. Tumor sizes were 391 ± 173 mm^3 at the start of the studies. All animal experiments were approved by the Animal Welfare Committee of the Erasmus MC and were conducted in agreement with institutional guidelines (license number: AVD101002017867, 28 September 2017).\n(§2) Before gamma counter measurements, the tumor half, pancreas, kidneys, lungs, small intestine, large intestine, liver, muscle, and bone were placed in two petri dishes and ex vivo optical imaging was performed with the IVIS Spectrum system (Perkin Elmer, Waltham, MA, USA) using the following settings for all measurements: FOV 12.6 cm, medium binning, f2, 0.5 s exposure with an excitation/emission filter of 640 nm/680 nm. Living Image version 4.5.2 software (Perkin Elmer) was used to perform data analysis by drawing a region of interest around the organ/tissue to quantify the radiant efficiency {(photons/second/cm^2/steradian)/(μW/cm^2)}."}, "[3]": {"assay": "Ex vivo optical (fluorescence, IVIS) imaging of organs", "format": "in vivo, mouse", "details": "male, Balb/c nu/nu, mouse, iv, ex vivo radiant efficiency", "protocol": "as §1, §2"}, "[4]": {"assay": "Distribution coefficient (LogD7.4), shake-flask method", "format": "physicochemical", "details": "n-octanol/PBS pH 7.4, n = 3; read-out: Log D7.4", "protocol": "Distribution coefficients (LogD7.4) for the ^111In-labeled compounds were determined by a shake-flask method. The experiments were performed in triplicate for each radioligand. A sample containing the radioligand (0.5–2.0 MBq) was dissolved in 1 mL solution of phosphate-buffered saline (0.01 M, pH 7.4) and n-octanol (v:v = 1:1). The vials were vortexed vigorously and then centrifuged at 10,000 rpm for 3 min, for phase separation. Samples (10 μL) of each phase were taken out and analyzed using a gamma counter. LogD7.4 values were calculated, using the following equation: LogD7.4 = log {(counts in n-octanol phase)/(counts in PBS phase)}."}, "[5]": {"test_system": "PC-3-xenograft Balb/c nu/nu mice", "assay": "Ex vivo biodistribution after SPECT/CT scanning", "format": "in vivo, mouse", "details": "radioactivity, ~3 h p.i.", "protocol": "as §1\nTo determine the biodistribution of the compounds after imaging (~3 h p.i.), blood was collected via cardiac puncture under isoflurane/O2 anesthesia, after which the mice were sacrificed. The tumor and organs of interest (prostate, pancreas, spleen, liver, GI tract (stomach, small intestine, cecum, large intestine), kidneys, lungs, heart, muscle, bone, and brain) were excised, washed in PBS and blotted dry. The stomach, intestines and cecum were emptied of their contents. The tumor was cut in half; one half was fresh-frozen for further analysis and the other half was collected for ex vivo optical imaging and radioactivity measurements. After imaging, the blood, tumor, and relevant organs were weighed and measured in a γ-counter. To determine the total injected radioactivity per animal, samples of the injected solutions were measured as well. The percentage of injected dose per gram (%ID/g) was determined for each tissue sample and corrected for both the injected volume and %ID present at the injection site (the tail). Because the low weight of the prostate limited accurate organ weight measurements, the average prostate weight of all animals was used."}, "[6]": {"details": "blocked with 150 nmol unlabeled NeoB, n = 1"}, "[7]": {"details": "non-blocked, n = 3, listed as [111In]In‐15"}}, "note": "Read-outs that look alike come from different tables or passages of the source.", "data": [{"smiles": "CC(C)CC(CC(C)C)NC(=O)[C@H](Cc1c[nH]cn1)NC(=O)CNC(=O)[C@@H](NC(=O)[C@H](C)NC(=O)[C@H](Cc1c[nH]c2ccccc12)NC(=O)[C@H](CCC(N)=O)NC(=O)[C@@H](Cc1ccccc1)NC(=O)CCOCCOCCOCCOCCNC(=O)[C@H](CCCCNC(=O)OC1CCCC2C=NN=C(c3ccc(CNC(=O)CCCCC[N+]4=C(/C=C/C=C/C=C5N(C)c6ccc(S(=O)(=O)O)cc6C5(C)C)C(C)(C)c5cc(S(=O)(=O)[O-])ccc54)cc3)C2CC1)NC(=O)CN1CCN(CC(=O)O)CCN(CC(=O)O)CCN(CC(=O)O)CC1)C(C)C", "note": "(stereo partly shown) [[^111In]In-15, metal not drawn]", "values": [{"measurement": "Stability in PBS (%) 30 min", "setting": "[1]; 30 min", "value": 83.0, "unit": "%"}, {"measurement": "Stability in PBS (%) 1 h", "setting": "[1]; 1 h", "value": 71.8, "unit": "%"}, {"measurement": "Stability in PBS (%) 2 h", "setting": "[1]; 2 h", "value": 67.0, "unit": "%"}, {"measurement": "Stability in PBS (%) 4 h", "setting": "[1]; 4 h", "value": 57.1, "unit": "%"}, {"measurement": "Fluorescent signal, bone (average radiant efficiency)", "setting": "[2]; [6]", "value": "0.55 × 10^8 p/sec/cm^2/sr per µW/cm"}, {"measurement": "Fluorescent signal, kidneys (average radiant efficiency)", "setting": "[2]; [6]", "value": "6.09 × 10^8 p/sec/cm^2/sr per µW/cm"}, {"measurement": "Fluorescent signal, large intestine (average radiant efficiency)", "setting": "[2]; [6]", "value": "0.49 × 10^8 p/sec/cm^2/sr per µW/cm"}, {"measurement": "Fluorescent signal, liver (average radiant efficiency)", "setting": "[2]; [6]", "value": "1.75 × 10^8 p/sec/cm^2/sr per µW/cm"}, {"measurement": "Fluorescent signal, lungs (average radiant efficiency)", "setting": "[2]; [6]", "value": "2.93 × 10^8 p/sec/cm^2/sr per µW/cm"}, {"measurement": "Fluorescent signal, muscle (average radiant efficiency)", "setting": "[2]; [6]", "value": "0.96 × 10^8 p/sec/cm^2/sr per µW/cm"}, {"measurement": "Fluorescent signal, pancreas (average radiant efficiency)", "setting": "[2]; [6]", "value": "1.17 × 10^8 p/sec/cm^2/sr per µW/cm"}, {"measurement": "Fluorescent signal, small intestine (average radiant efficiency)", "setting": "[2]; [6]", "value": "0.38 × 10^8 p/sec/cm^2/sr per µW/cm"}, {"measurement": "Fluorescent signal, tumor (average radiant efficiency)", "setting": "[2]; [6]", "value": "1.47 × 10^8 p/sec/cm^2/sr per µW/cm"}, {"measurement": "Fluorescent signal, bone (average radiant efficiency)", "setting": "[2]; non-blocked, n = 3", "value": "0.74 ± 0.24 × 10^8 p/sec/cm^2/sr per µW/cm"}, {"measurement": "Fluorescent signal, kidneys (average radiant efficiency)", "setting": "[2]; non-blocked, n = 3", "value": "7.80 ± 0.92 × 10^8 p/sec/cm^2/sr per µW/cm^2"}, {"measurement": "Fluorescent signal, large intestine (average radiant efficiency)", "setting": "[2]; non-blocked, n = 3", "value": "0.94 ± 0.28 × 10^8 p/sec/cm^2/sr per µW/cm"}, {"measurement": "Fluorescent signal, liver (average radiant efficiency)", "setting": "[2]; non-blocked, n = 3", "value": "2.38 ± 0.21 × 10^8 p/sec/cm^2/sr per µW/cm"}, {"measurement": "Fluorescent signal, lungs (average radiant efficiency)", "setting": "[2]; non-blocked, n = 3", "value": "2.25 ± 0.70 × 10^8 p/sec/cm^2/sr per µW/cm"}, {"measurement": "Fluorescent signal, muscle (average radiant efficiency)", "setting": "[2]; non-blocked, n = 3", "value": "1.08 ± 0.16 × 10^8 p/sec/cm^2/sr per µW/cm"}, {"measurement": "Fluorescent signal, pancreas (average radiant efficiency)", "setting": "[2]; non-blocked, n = 3", "value": "5.12 ± 1.93 × 10^8 p/sec/cm^2/sr per µW/cm^2"}, {"measurement": "Fluorescent signal, small intestine (average radiant efficiency)", "setting": "[2]; non-blocked, n = 3", "value": "0.85 ± 0.04 × 10^8 p/sec/cm^2/sr per µW/cm"}, {"measurement": "Fluorescent signal, tumor (average radiant efficiency)", "setting": "[2]; non-blocked, n = 3", "value": "4.66 ± 1.35 × 10^8 p/sec/cm^2/sr per µW/cm^2"}, {"measurement": "Fluorescent signal, kidneys (average radiant efficiency)", "setting": "[2]; [7]", "value": "7.80 ± 0.92 × 10^8 p/sec/cm^2/sr per µW/cm"}, {"measurement": "Fluorescent signal, pancreas (average radiant efficiency)", "setting": "[2]; [7]", "value": "5.12 ± 1.93 × 10^8 p/sec/cm^2/sr per µW/cm"}, {"measurement": "Fluorescent signal, tumor (average radiant efficiency)", "setting": "[2]; [7]", "value": "4.66 ± 1.35 × 10^8 p/sec/cm^2/sr per µW/cm"}, {"measurement": "tissue to tissue ratio", "setting": "[3]; tumor and kidney, blocked with 150 nmol unlabeled NeoB, n = 1, read-out: Tumor-to-kidney ratio (fluorescence)", "value": 0.24}, {"measurement": "tissue to tissue ratio", "setting": "[3]; tumor and kidney, non-blocked, n = 3, read-out: Tumor-to-kidney ratio (fluorescence)", "value": "0.59 ± 0.14"}, {"measurement": "tissue to tissue ratio", "setting": "[3]; tumor and liver, blocked with 150 nmol unlabeled NeoB, n = 1, read-out: Tumor-to-liver ratio (fluorescence)", "value": 0.84}, {"measurement": "tissue to tissue ratio", "setting": "[3]; tumor and liver, non-blocked, n = 3, read-out: Tumor-to-liver ratio (fluorescence)", "value": "1.96 ± 0.57"}, {"measurement": "tissue to tissue ratio", "setting": "[3]; tumor and muscle, blocked with 150 nmol unlabeled NeoB, n = 1, read-out: Tumor-to-muscle ratio (fluorescence)", "value": 1.54}, {"measurement": "tissue to tissue ratio", "setting": "[3]; tumor and muscle, non-blocked, n = 3, read-out: Tumor-to-muscle ratio (fluorescence)", "value": "4.5 ± 1.87"}, {"measurement": "tissue to tissue ratio", "setting": "[3]; tumor and pancreas, blocked with 150 nmol unlabeled NeoB, n = 1, read-out: Tumor-to-pancreas ratio (fluorescence)", "value": 1.25}, {"measurement": "tissue to tissue ratio", "setting": "[3]; tumor and pancreas, non-blocked, n = 3, read-out: Tumor-to-pancreas ratio (fluorescence)", "value": "0.95 ± 0.18"}, {"measurement": "logD", "setting": "[4]", "value": "-1.75 ± 0.09"}, {"measurement": "Tumor-to-blood ratio", "setting": "[5]; [6]", "value": 0.32}, {"measurement": "Tumor-to-prostate ratio", "setting": "[5]; [6]", "value": 3.09}, {"measurement": "Tumor-to-prostate ratio", "setting": "[5]; non-blocked, n = 3", "value": "2.16 ± 0.46"}]}]}
